Here are results for one molecule from patent US20190309055A1 (NORDIC BIOSCIENCE A S, published 2019).

For assay [1], the target named is T1, standard peptide KPGVISVMGT (last 10 amino acids of the type VI collagen α3 chain, 3168-3177).
T1 construct: also called STD peptide; immunogenic peptide
T1 peptide: KPGVISVMGT
As to the kind of experiment: competitive ELISA, peptide specificity test.

The target in assay [2] is T2, elongated peptide KPGVISVMGTA
T2 peptide: KPGVISVMGTA
Nature of the assay: competitive ELISA, serial 2-fold dilutions of peptide.

The target of assay [3] is T3, truncated peptide KPGVISVMG
T3 peptide: KPGVISVMG
The assay is described as above.

B1: monoclonal antibody 10A3 (antibody, mouse IgG1, kappa, V domains shown)
VH: EVQLQQSGPVMVKPGTSVKTSCKASGYTFTDFNMNWVKQSHGKSLEWIGAINPHNGATSYNQKFSGKATLTVDKSSSTAYMELNSLTSDDSAVYYCARWGNGKNSWGQGTTLTVSS
VL: DVVMTQTPLSLPVNLGDQASISCRSSQRIVHSNGITFLEWYLQKPGQSPKLLIYRVSNRFSGVPDRFSGSGSGTDFTLKISRVEAEDLGLYYCFQGSHVPLTFGAGTRLELKR
notes: Mouse IgG1/kappa from hybridoma; also called the chosen antibody; HRP conjugated monoclonal antibody 10A3
On to B1, for which the binding result in assay [1] was “binds”; in assay [2] it was “no binding”; in assay [3], “no binding”.
